Assay type in all cases: cell-based
Assay [1] concerns gene editing with Cas9 and dCas9. The assay can be described thus: Screen of 322 new SSAP proteins, activity across all experiments (Cas9 and dCas9, Table 5). Also noted: scale not given here. From the text: (§1) 322 new SSAP proteins were identified from sequence data, synthesized, and screened for activity with Cas9 and dCas9. Gene editing activities are shown below in Table 5, followed by amino acid sequences of the proteins.

In assay [2] the test system is gene editing with Cas9. Put plainly: Screen of 322 new SSAP proteins, gene editing activity with Cas9 (Table 5). Also noted: Cas9 with SSAP activity: scale not given here.
Text: as §1

The subject of assay [3] is gene editing with dCas9. The assay can be described thus: Screen of 322 new SSAP proteins, gene editing activity with dCas9 (Table 5). Also noted: dCas9 with SSAP activity: scale not given here.
Text: as §1

“LambdaBet (MSTALATLAGKLAERVGMDSVDPQELITTLRQTAFKGDASDAQFIALLI)”: in assay [1], the “Activity across all experiments” value is −3.613. In assay [2], the “Cas9 with SSAP activity” value was −4.490 and the “Cas9 with SSAP activity (normalized)” value was −0.856. For the same molecule, in assay [3], the “dCas9 with SSAP activity” value is given as −2.737 and the “dCas9 with SSAP activity (normalized)” value is −0.416.

B1: SSAP_315: SEQ ID NO: 484; Pseudoalteromonas spongiae (protein, listed as Pseudoalteromonas spongiae)
chain: NKFQHLQTELSSQLLSTKERFNELNNKNNLKVNFEEEYNFFYHLVTSSFYNINGIATCTFSSLKEAFLNIAKYGLSINPKLNLCYIRTEQSCAQANVNIAVYDFGYKGLLKLITRTGKVKIVTADVFYENDNFEFRGTREPVKHSTKTLSAAARGAMAGGYCSSELVAGGVVTTIMTPEELREIESICQSTGNEAWNSVFIDELRRKTLIKRHWKTLMQVIEEQNLSVPIEETYQCDFANGGY
Regarding B1, the “Activity across all experiments” value in assay [1] is listed as −2.321. Besides, in assay [2], the “Cas9 with SSAP activity” value is recorded as −1.578 and the “Cas9 with SSAP activity (normalized)” value is given as −0.629. Also, in assay [3], the “dCas9 with SSAP activity” value is −3.063 and the “dCas9 with SSAP activity (normalized)” value is listed as −2.608.

B2: SSAP_163: SEQ ID NO: 332; Clostridium sp. Marseille-P3244 (protein, listed as Clostridium sp.)
chain: AARATNSVKEELAKKAETKAVGEKKLTRSMSIADLIKAMAPEIKKALPEVITPERFTRMALSALNTTPKLQECTQMSFLAALMNAAQLGLEPNTPLGQAYLIPFNNKGTMECQFQIGYKGLIDLGYRNPQMQIISAQAVYENDEFEYELGLNPKLEHRPALHDRGELRLFYGLFKLVNGGFGFEVMSKEAVDAYAKEYSKSFDSSFSPWKTNYEAMAKKTVIKQALKYAPIKADFRKALSTDETIKNEIAEDMSEIHGEDIFDAEYTEQTA
Turning to B2, in assay [1], the “Activity across all experiments” value is listed as −0.742. Moreover, in assay [2], the “Cas9 with SSAP activity” value came out at 1.362 and the “Cas9 with SSAP activity (normalized)” value came out at 1.914. Also, in assay [3], the “dCas9 with SSAP activity” value is on record as −2.847 and the “dCas9 with SSAP activity (normalized)” value is on record as −0.374.

B3: SSAP_105: SEQ ID NO: 274; unclassified Lysinibacillus (protein, listed as Lysinibacillus sp.)
chain: ATTTDLKAQMQQAPATQQKPKTIDDYLKQMAPAMAQALPKHMDVDRLMRLAMTTIRTTPALKDADVSSLLGAVMQAAQLGLEPGLMGHCYLLPFKNNKKGITEVQFIIGYKGMIDLARRSGHIQSIYAHAVYQKDEFEYELGLDPKLKHKPCMDEDKGNFVGAYAVAHFKDGGYQFEFMSKAEIEKRKGRSKAANSTYSPWATDYEEMAKKTVVRHMWKYLPISVEMQQQVAYDEGTAPKREMKDITPETEFFVDAPEIEVEVVNE
Turning to B3, the “Activity across all experiments” value in assay [1] is −1.882. Moreover, in assay [2], the “Cas9 with SSAP activity” value is listed as −0.802 and the “Cas9 with SSAP activity (normalized)” value is −0.382. Further, in assay [3], the “dCas9 with SSAP activity” value was −2.961 and the “dCas9 with SSAP activity (normalized)” value is −0.450.

B4: SSAP_234: SEQ ID NO: 403; Cellulosilyticum lentocellum (protein, listed as Cellulosilyticum lentocellum)
chain: SDKKELVLKETHSRLNQLLATKMEAMPKDFNQTRFLQNCMTVLQDTKGIENCHPVSIARTLLKGAFLGLDFFQRECYAIPYGGELQFQTDYKGETKMAKKYSIRDIKDIYAKVVRKGDEFKEEIVAGQQVVDFKPLPFNDAEIIGAFAVVLYQDGGMEYETMSTKQIEGIRDNFSKMKNGLMWTKTPEEAYKKTVLRRLTKKIEKDFASIDQAKAYEESSDMQFKQDEQKQDAKDPFADAVDVEFTEETEGQVRLDGEADGAK
Regarding B4, the “Activity across all experiments” value in assay [1] was −1.177. In addition, in assay [2], the “Cas9 with SSAP activity” value was 0.596 and the “Cas9 with SSAP activity (normalized)” value was 1.140. For the same molecule, in assay [3], the “dCas9 with SSAP activity” value is reported as −2.950 and the “dCas9 with SSAP activity (normalized)” value was −0.446.

B5: SSAP_265: SEQ ID NO: 434; Clostridium coskatii (protein, listed as Clostridium coskatii)
chain: SDKKMVVLNESHTMLNKLLETKQEALPKDFNKARFLQNCMTVLQDTKGIEQCQPITVARTMLKGAFLGLDFFNKECYAIPYKDNLQFQTDYKGEIKLAKKYSFNPIKDIYAKIVRQGDDFQEAIINGQQTINFTPVPFNNGEIIGAFAVCLFQDGSMLYETMAKQEIENTRKNFSKAPNSPAWTKTPGEMYKKTVLRRLCKLIELDFDSVECKKVYNETSDFEFENQQHEVSNFDKKDIDEDKIVEADVEVQDDNENNVPEDGE
Consider B5, for which the “Activity across all experiments” value in assay [1] is listed as −2.057. In addition, in assay [2], the “Cas9 with SSAP activity” value is on record as −0.932 and the “Cas9 with SSAP activity (normalized)” value is −0.510. For the same molecule, in assay [3], the “dCas9 with SSAP activity” value is given as −3.182 and the “dCas9 with SSAP activity (normalized)” value is recorded as −0.478.

B6: SSAP_249: SEQ ID NO: 418; environmental Halophage eHP-30 (protein)
chain: TEQNQTPAKTESKSPIKAQLYKDNVQQRFQELLGERASAFMTSVMSVVKDNDQLSQAEPSSVLNAAMTAATLDMPIDNNLGMAYIVPYKDGKSGKTYAQFQLGYKGFIQLAQRSGQFKTISATPVRQGQIVTADPLRGYEFDFTQGQDKEVVGYAAYFALLNGFEKTLYMSKAEMEQHAASYAAGYKKGYSNWNRKFDEMALKTVIKQLLSKYAPLSVDMQKAQQTDQTVSVEEPNAIEQQEAAPEIDASSNNNQNQ
modifications: environmental Halophage eHP-30
Consider B6, for which, in assay [1], the “Activity across all experiments” value is listed as −3.156. In addition, in assay [2], the “Cas9 with SSAP activity” value is −3.033 and the “Cas9 with SSAP activity (normalized)” value is −0.543. For the same molecule, in assay [3], the “dCas9 with SSAP activity” value is reported as −3.279 and the “dCas9 with SSAP activity (normalized)” value is listed as −0.575.

B7: SSAP_51: SEQ ID NO: 220 (protein)
chain: AENEKQALLQEENKSENVVSTVKRTALATNPFSDTDQFNNIFKMAQLISQSDMIPATYKGKPMNCVIALEQANRMGVSPLMVMQNLYVVKGVPSWSGQGCMMIIQGCGKFRDVDYVYSGEKGTDSRSCKVVATRISDGKRIEGTEITMQMVKSEGWISNTKWKNMPEQMLGYRAATFFARMYCPNELNGFATEGEAEDMNHKPQRIEAINVLGDTAHE
On to B7, for which, in assay [1], the “Activity across all experiments” value was −1.512. Besides, in assay [2], the “Cas9 with SSAP activity” value was −0.124 and the “Cas9 with SSAP activity (normalized)” value is reported as −0.406. For the same molecule, in assay [3], the “dCas9 with SSAP activity” value is recorded as −2.900 and the “dCas9 with SSAP activity (normalized)” value is reported as −0.907.

B8: SSAP_113: SEQ ID NO: 282; Acinetobacter sp. RIT592 (protein, listed as Acinetobacter sp.)
chain: ADLKNKLANKAAGTVTKTSPNAGMKQLMKSMSKEIEAALPSHMSSERFQRVALTAFGNNPKLMNCDPMSFIAAMMDSAQLGLEPNTPLGQAYLIPYGTKVQFQVGYKGLLELALRSGKIKTLYAHEVRENDTFEVKYGLHQDLIHEPVLKGNRGEVIGYYAVYHLDTGGHSFVFMTKDEVLEHAKGKSKTFNNGPWQTDFDAMAKKTVIKQLLKYAPLSIEMQKAVSSDETVKSKIDEDMSLVVDESDSIEANFEIKEDEDGQLDVYVK
For the molecule B8, in assay [1], the “Activity across all experiments” value is on record as −3.431. Moreover, in assay [2], the “Cas9 with SSAP activity” value was −3.728 and the “Cas9 with SSAP activity (normalized)” value was −3.241. In addition, in assay [3], the “dCas9 with SSAP activity” value is given as −3.134 and the “dCas9 with SSAP activity (normalized)” value was −3.818.

The values above are taken from patent US20250034594A1, “RNA-GUIDED GENOME RECOMBINEERING AT KILOBASE SCALE” (THE BOARD OF TRUSTEES OF THE LELAND STANFORD JUNIOR …, priority 2021, published 2025).
